Residue numbers refer to the chain shown, from its start.
Tests used:
[1] = test system: hT40, dGA, dGAE and truncated tau fragments; experiment: Binding ELISA / epitope mapping of anti-tau scAbs with truncated tau proteins and 13mer peptides; parameters: species or system human; details: for Tau proteins/fragments with positive scAb reactivity: binding ELISA; for Shortest region bound on hT40: incl. 13mer peptides; for Binding regions on hT40: Table 33, core binding scAbs tested in epitope occlusion assays; for Short epitope on hT40: Table 18, '3a' & '3b' series scAbs; for Epitope: residue numbers of SEQ ID NO: 1 (hT40), CDR Tables 1-11
Procedure: A series of binding ELISA was performed using various truncated versions of the tau protein and 13mer peptide libraries spanning the entire hT40 molecule for mapping the epitopes of anti-tau scAbs (Full list of protein antigens used is given in Table 14). In general, ELISA plates were coated with 1 μg/ml hT40 or dGA or dGAE or other truncated versions of the protein and in the case of biotinylated peptides, plates were coated with 5 μg/ml Streptavidin followed by 1 μg/ml biotinylated peptide. The plates were blocked with 2% MPBS and scAb samples added at desired starting concentrations and double diluted across the plate. Binding was detected using anti-Human C Kappa HRP conjugated secondary antibody and the resulting immunoreaction was developed and absorbance values measured as described above.
Selected E specific scAbs and their specific binding to dGAE is shown below (FIG. 8A-E).
Similarly, dGA binding ‘NS’, ‘S’ and ‘M’ group scAbs were subjected to further antigen binding ELISA using shorter tau proteins and biotinylated 13mer peptides as shown below (FIG. 10A-F) and (FIG. 11A-R).

[2] = biological target: T1, hT40 (T441, SEQ ID NO: 1) (Homo sapiens, UniProt P10636); experiment: Biacore X100 SPR kinetics of scAbs for hT40; assay type: binding; details: Table 25; '3a' and '3b' scAbs, hT40
T1 construct: Full length tau (hT40)
T1 sequence (P10636 1-441 isoform P10636-8): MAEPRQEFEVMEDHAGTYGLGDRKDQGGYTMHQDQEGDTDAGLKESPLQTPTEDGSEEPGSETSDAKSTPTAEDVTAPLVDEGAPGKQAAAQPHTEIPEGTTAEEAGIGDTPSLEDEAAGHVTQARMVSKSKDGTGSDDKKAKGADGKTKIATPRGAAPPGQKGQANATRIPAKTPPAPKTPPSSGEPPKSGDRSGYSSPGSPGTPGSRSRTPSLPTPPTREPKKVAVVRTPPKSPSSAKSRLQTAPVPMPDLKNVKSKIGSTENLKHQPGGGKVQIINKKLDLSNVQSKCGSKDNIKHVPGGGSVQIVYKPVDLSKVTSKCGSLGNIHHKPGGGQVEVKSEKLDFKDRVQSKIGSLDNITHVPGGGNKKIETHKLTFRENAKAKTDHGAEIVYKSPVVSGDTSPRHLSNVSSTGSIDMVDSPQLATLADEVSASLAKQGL
Procedure: Surface plasmon resonance (SPR) is widely regarded as the gold standard for real time measurement of protein-protein interactions such as antibody binding. All SPR experiments were carried out using a Biacore X100 machine and HBS EP+ running buffer (GE Healthcare). A ‘capture’ method was followed for affinity measurements, where an anti-human constant kappa chain (HuCk) antibody was conjugated to the surface of a CM5 sensor chip using an amine coupling kit and scAb molecules were immobilised via their HuCk domain. Amine coupling is a very common approach for immobilising the ligand to the chip surface. […] The capture antibody was diluted 1/100 in 10 mM Sodium acetate buffer pH 5.0 and passed over the activated chip surface for a period of at least 420 s. Final ligand immobilisation levels over 12,000 RU were deemed to be satisfactory.
Following immobilisation, the level of each scAb to be captured was identified using the standard SPR equation with a theoretical RMax of 100 RU. Analyte MW refers to the molecular weight of hT40 or dGA/dGAE molecules, while ligand MW refers to the molecular weight of the scAbs tested. RL is the desired capture level and S refers to the stoichiometric ratio:
The scAb to be tested was added only to flow cell 2 so that flow cell 1 could act as a control to subtract any interaction with the analyte and the chip surface. Both single and multi-cycle runs were utilised using wizards developed in the Biacore X100 control software which are both accepted methods of kinetic analysis (Karlsson, R., et al. Analyzing a kinetic titration series using affinity biosensors (2006) Analytical Biochemistry 349:136-47). The multi-cycle protocol was as follows-Three start-up cycles composed of an initial capture, to the desired level, of the scAb to be tested was performed followed by a 30 s injection of glycine buffer pH 2.0 after each cycle to regenerate the chip surface. […] Following three start-up cycles increasing concentrations (0.15625 nM-100 nM) of the target to be tested were added to the chip surface after the desired scAb capture. The target was added for a 120 s association period and 420 s dissociation period followed by another regeneration, 30 s injection of glycine buffer pH 2.0 in between each cycle.
The single cycle kinetics protocol was similar and utilised the same level of scAb capture. Three start-up cycles were used followed by 5 increasing concentrations of the analyte (6.25 nM-100 nM) for an association period of 120 s followed by a dissociation period of 420 s for each concentration. In single cycle kinetics the regeneration step was performed only after the final analyte concentration was added. Binding responses were analysed in Biacore X100 evaluation software and data fitted to a 1:1 binding model to obtain kinetic and affinity characterisation.

B1: S1G10: anti-tau clone, Table 2; SEQ ID NO: 415 (protein)
scFv: QVQLQESGPSLVKPSQTLSLTCTVSGFSLTSNSVGWVRQAPGKAPEWVAGIDTDGEEGYNPALNSRLSITRDTSKSQVSLSLSSVTSEDTAVYYCGRSYRADGLAYGYVQAIDYWGPGLLVTVSSEGKSSGASGESKVDDQAVLTQPSSMSGSLGQRVSITCSGSFIGISSVGWFQQLPGSGLRTIIVASDGRPSGVPDRFSMSKSGNTATLTISSLQAEDEADYFCGSSDRTQYTGVFGSGTRLTVLG
modifications: S1G10 amino acid sequence
[1]; Table 16, NS, S and M clones
  Tau proteins/fragments with positive scAb reactivity: hT40, 297-390 (dGA), 297-391 (dGAE), 369-390, 369-391
  Shortest region bound on hT40: 367-379
[1]; Table 28 (LoD table), residues of hT40
  Detection scAb (Epitope): S1G10 (367-379)

B2: C-A9 (protein)
scFv: B1 scFv with A101S, S148A, M150V
modifications: left off: small tags and cut ends
[1]
  Binding regions on hT40: 367-379

B3: 3aB7: anti-tau clone, Table 7; SEQ ID NO: 420 (protein)
chain: QVQLQESGPSLVKPSQTLSLTCTVSGFSLTSNGVGWVRQAPGKVPEWVGDKSSAGKTYGNPALKSRLSITRDTSKSQVSLSLSSVTTEDTAVYYCVRCRDGGVTYGYDVDYWGPGLLVTVSSEGKSSGASGESKVDDQAVLTQPSSVSKSLGQSVSITCSGSSSNVGYGDVVSWFQQFPGSAPKLLIFGTTTRASGVPDRFSGSRSGNAATLTINSLQAEDEADYYCASFDSDSGGIAGSGTRLTVLG
modifications: 3aB7 amino acid sequence
[1]
  Short epitope on hT40: 49-111
  Epitope: 49-111
[2]
  ka: 207200 M⁻¹ s⁻¹
  kd: 0.01435 s⁻¹

B4: C-B3 (protein)
scFv: QVQLQESGPSLVKPSQTLSLTCTVSGFSLSSVAVNWVRQAPGKVPEWLGGIISNGGTGYNPALKSRLSITRDTSKSQVSLALTHVTTEDTAVYYCGRGVEWEGSMDYLGPGLLVTVSSEGKSSGSGSETKVDDQSVLTQPSSVSGFLGQRVTITCSGSSSNVGAGSYVGWYQQVPGSGLRILIYGATKRASGLPDRFSGSRSGNTATLTISSLQAEDEADYYCVSYQTDFTLVFGSGTRLTVLG
modifications: left off: small tags and cut ends
[1]
  Binding regions on hT40: 360-390

B5: S-1D12 (protein)
CDR 1: NNAVG
CDR 2: GCSSDGTCYYNSALKS
CDR 3: GHYSIYGYDYLGTIDY
CDR 4: SGSSSNVGGGNSVG
CDR 5: DTNSRPS
CDR 6: VTGDSTTHDDL
modifications: VHCDR1 S1D12, S2C1; VHCDR2 S1D12, S2C1; VHCDR3 S1D12; VLCDR1 S1D12, ME12; VLCDR2 S1D12; VLCDR3 S1D12
[1]
  Binding regions on hT40: 337-355

B6: 3aA6: anti-tau clone, Table 8; SEQ ID NO: 418 (protein)
chain: QVRLQESGSSLVKPSQTLSLVCTVSGFPLTSNAVGWVRQAPGKAPEWLGLIDIDGDTAYNPALESRLSITRDTSKSQVSLSLSSVAIEDTAVYYCARHYDKWGYADSIDYWGPGLLVTVSSEGKSSGASGESKVDDQALLTQPSSVFGSLGQRVSITCSGSSSNVGYGDYVGWYQQVPGSAPKLLIYDATTRASGVPDRFSGSRSGNTATLTISSLQAEDEADYYCASYQNERSGVFGSGTRLTVLG
modifications: 3aA6 amino acid sequence
[1]
  Short epitope on hT40: 147-157
  Epitope: 147-157
[2]
  ka: 19000 M⁻¹ s⁻¹
  kd: 0.0188 s⁻¹

B7: 3bF4: anti-tau clone, Table 7; SEQ ID NO: 421 (protein)
chain: QVQLQESGPSLVKPSQTLSLTCTVSGFSLSSNGVGWVRQAPGKVPEWLGDISSVGKKYANPALKSRLSFTRDTSKSQVSLSLSSVTTEDTAVYYCVKCRDGGVTYGYDIDYWGPGLLVTVSSEGKSSGASGESKVDDQAVLTQPSSVSKSTGQTVSITCSGSSSNVGLRNYVTWFQQVPGSAPKLLIYGATSRASGIPDRFSGSRSGNTATLIISSLQAEDEADYYCASADTNDGGVFGSGTRLTVLG
modifications: 3bF4 amino acid sequence
[1]
  Short epitope on hT40: 49-111
  Epitope: 49-111
[2]
  ka: 109300 M⁻¹ s⁻¹
  kd: 0.01532 s⁻¹

B8: 3aD3: N-terminal anti-tau clone, Table 6; SEQ ID NO: 422 (protein)
chain: QVQLQESGPSLVKPSQTLSLTCTVSGFSLTSNGVGWVRRAPGKVPEWVGDISSGGKVYGHPALKSRLSITRDTSKSQVSLSVSSVTSEDTAVYYCVRCRDGGVSYGYDSDYWGPGLLVTVSSEGKSSGASGESKVDDQAVVTQPSSVSKSLGQSVSITCSGSSSNVGYGDYVGWFQQVPGSAPKLLIYGVTERASGVPDRFSGSRSGNTATLTISSIQAEDEADYYCASYDDSSGGIFGSGTRLTVLG
modifications: 3aD3 amino acid sequence
[1]
  Short epitope on hT40: 1-49
  Epitope: 1-49
[2]
  ka: 544400 M⁻¹ s⁻¹
  kd: 0.01038 s⁻¹

B9: C-E3 (protein)
CDR 1: SNAVG
CDR 2: GCSSDGKCYYNSALKS
CDR 3: GYYPVYGYDYLGTIDY
CDR 4: SGSSSNVGRNDVA
CDR 5: GTTSRPS
CDR 6: ASGDSSAINDI
modifications: VHCDR1 ME12, NS3D9; VHCDR1 S1D2, S1H6, S2C3; VHCDR1 MC5, MD12; VHCDR1 3aA6, VHCDR1 CE3; VHCDR2 NS3D9, CE3; VHCDR3 NS3D9, CE3; VLCDR1 NS3D9, CE3; VLCDR2 NS3D9, CE3; VLCDR3 NS3D9, CE3
[1]
  Binding regions on hT40: 297-356

B10: CA12: anti-tau clone, Tables 2 and 10; SEQ ID NO: 372 (protein)
chain: QVQLQGSGPSLVKPSQTLSLTCTVSGFSFDSYYVGWVRQAPGKALEWLGNIYSTGRAFYNPALKSRLSITRDTSKSQVSLSVSSVTIEDTALYYCVRGSYYHGGGNGMVDFFDYWSPGLLVTVSSEGKSSGASGESKVDDQVVRTQPSSVSGSLGQRVSITCSGSSSNVGYGNYVGWFQQVPGSAPKLLIYAATSRASGVPDRFSGSRSGNTATLTIDSLQAEDEADYYCSSYQRGNTGVFGSGTRLTVLG
modifications: CA12 amino acid sequence
[1]; Table 17, 'C' group scAbs
  Tau proteins/fragments with positive scAb reactivity: hT40, 297-390 (dGA)
  Shortest region bound on hT40: 367-379

B11: CB2: anti-tau clone, Tables 2 and 10; SEQ ID NO: 369 (protein)
scFv: QVQLQESGPSLVKPSQTLSLTCTVSGFSLSTNSVGWVRQAPGKAPEWVAGIDTDGEEGFNPVLKSRLSITRDTSKSQVSLSLSNVTSEDTAVYYCGRSYRTDGLAYGYVQAIDYWGPGLLVTISSEGKSSGASGESKVDDQSVLTQPSSVSGSPGQTVSITCSGSYIGSSGVGWFQQLPGSGLRTIIVASDGRPSGVPDRFSMSKSGNTATLTISSLQAEDEADYFCGSSDRTQYTGLFGSGTRLTVLG
modifications: CB2 amino acid sequence
[1]; Table 17, 'C' group scAbs
  Tau proteins/fragments with positive scAb reactivity: hT40, 348-441
  Shortest region bound on hT40: 359-391
